# Measurements: IntAct's records for PubMed 7877691
# B1: Retinoblastoma-associated protein (Homo sapiens), P06400 (parent)
# chain: MPPKTPRKTAATAAAAAAEPPAPPPPPPPEEDPEQDSGPEDLPLVRLEFEETEEPDFTALCQKLKIPDHVRERAWLTWEKVSSVDGVLGGYIQKKKELWGICIFIAAVDLDEMSFTFTELQKNIEISVHKFFNLLKEIDTSTKVDNAMSRLLKKYDVLFALFSKLERTCELIYLTQPSSSISTEINSALVLKVSWITFLLAKGEVLQMEDDLVISFQLMLCVLDYFIKLSPPMLLKEPYKTAVIPINGSPRTPRRGQNRSARIAKQLENDTRIIEVLCKEHECNIDEVKNVYFKNFIPFMNSLGLVTSNGLPEVENLSKRYEEIYLKNKDLDARLFLDHDKTLQTDSIDSFETQRTPRKSNLDEEVNVIPPHTPVRTVMNTIQQLMMILNSASDQPSENLISYFNNCTVNPKESILKRVKDIGYIFKEKFAKAVGQGCVEIGSQRYKLGVRLYYRVMESMLKSEEERLSIQNFSKLLNDNIFHMSLLACALEVVMATYSRSTSQNLDSGTDLSFPWILNVLNLKAFDFYKVIESFIKAEGNLTREMIKHLERCEHRIMESLAWLSDSPLFDLIKQSKDREGPTDHLESACPLNLPLQNNHTAADMYLSPVRSPKKKGSTTRVNSTANAETQATSAFQTQKPLKSTSLSLFYKKVYRLAYLRLNTLCERLLSEHPELEHIIWTLFQHTLQNEYELMRDRHLDQIMMCSMYGICKVKNIDLKFKIIVTAYKDLPHAVQETFKRVLIKEEEYDSIIVFYNSVFMQRLKTNILQYASTRPPTLSPIPHIPRSPYKFPSSPLRIPGGNIYISPLKSPYKISEGLPTPTKMTPRSRILVSIGESFGTSEKFQKINQMVCNSDRVLKRSAEGSNPPKPLKKLRFDIEGSDEADGSKHLPGESKFQQKLAEMTSTRTRMQKQKMNDSMDTSNKEEK
# partner: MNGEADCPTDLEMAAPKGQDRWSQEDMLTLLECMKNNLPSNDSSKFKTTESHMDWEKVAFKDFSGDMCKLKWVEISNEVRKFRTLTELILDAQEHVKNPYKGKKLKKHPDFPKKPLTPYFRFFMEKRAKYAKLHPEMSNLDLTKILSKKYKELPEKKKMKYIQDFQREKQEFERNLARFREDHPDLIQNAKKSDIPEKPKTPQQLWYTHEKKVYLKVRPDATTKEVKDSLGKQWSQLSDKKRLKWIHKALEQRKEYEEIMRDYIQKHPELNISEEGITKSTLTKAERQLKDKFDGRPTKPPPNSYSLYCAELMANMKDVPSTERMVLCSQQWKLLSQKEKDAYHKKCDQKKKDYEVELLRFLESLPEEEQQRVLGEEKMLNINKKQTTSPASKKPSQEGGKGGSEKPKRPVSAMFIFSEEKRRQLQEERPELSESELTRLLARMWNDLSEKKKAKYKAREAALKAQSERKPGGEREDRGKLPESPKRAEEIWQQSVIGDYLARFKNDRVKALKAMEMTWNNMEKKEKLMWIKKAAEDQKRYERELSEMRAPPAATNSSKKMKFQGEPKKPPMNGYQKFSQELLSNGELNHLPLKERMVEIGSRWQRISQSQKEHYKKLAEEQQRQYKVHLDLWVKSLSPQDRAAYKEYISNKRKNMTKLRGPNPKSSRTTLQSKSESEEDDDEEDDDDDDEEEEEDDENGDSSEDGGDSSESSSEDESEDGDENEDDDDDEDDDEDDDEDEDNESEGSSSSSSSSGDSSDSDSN
# Variants of: B1
# Conditions: with ubf1_rat Ubtf
row,Variant,effect of a mutation on the interaction
1,C706F,disrupting interaction
